For two molecules, binding result and IC50 results are on record in patent publication US20240294645A1 (HANGZHOU SUMGEN BIOTECH, published 2024).

The target in experiment [1] is T1, Biotinylated Human VEGF165 Protein, His, Avitag (Acro Biosystems) (human, UniProt P15692-4 27-191, biotin-labeled (site not stated; Avitag)).
T1 construct: also called biotin-labeled VEGF165; not shown: His tag and Avitag
In words: bridging ELISA: PD-L1 coated, sample, then biotin-labeled VEGF165.

The target of experiment [2] is VEGF165 Protein, Human, Cynomolgus, Recombinant, HPLC-verified (Sino Biological) (Human, Cynomolgus, UniProt P15692-4 27-191). Put plainly: competition ELISA, VEGF165 coated, competitor biotin-labeled VEGFR2. The procedure:
(§1) 100 μL of 2N H₂SO4 stop solution was added to each well to terminate the substrate reaction.

The target in experiment [3] is T2, VEGF 121 Protein, Human, Recombinant (Sino Biological) (human, UniProt P15692-9 27-147).
T2 sequence (looked up): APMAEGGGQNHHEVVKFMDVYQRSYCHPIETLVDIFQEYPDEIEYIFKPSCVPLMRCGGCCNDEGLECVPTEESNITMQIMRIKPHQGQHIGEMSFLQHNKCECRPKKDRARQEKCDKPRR
Put plainly: competition ELISA, VEGF121 coated, competitor biotin-labeled VEGFR2. (In general: In an ELISA, binding on a coated surface is turned into a signal by an enzyme label.)

The target in experiment [4] is T1, Biotinylated Human VEGF165 Protein, …. Put plainly: competition ELISA, VEGFR1 coated (competitor), biotin-labeled VEGF165 detected. The protocol:
as §1

B1: SG1202 (printed 'a PD-L2 antibody 1'; used as PD-L1 antibody, apparently PD-L1 antibody 2) (antibody, V domains shown)
VH: EVQLVESGGGLVQPGGSLRLSCAASGFTFSRYWMSWVRQAPGKGLEWVANIKQDGSEKYYVDSVKGRFTISRDNAKNSLYLQMNSLRAEDTAVYYCAREGGWFGELAFDYWGQGTLVTVSS
VL: EIVLTQSPGTLSLSPGERATLSCRASQRVSSSYLAWYQQKPGQAPRLLIYDASSRATGIPDRFSGSGSGTDFTLTISRLEPEDFAVYYCQQYGSLPWTFGQGTKVEIK
notes: Only variable regions are tied to SG1202; also called PD-L1 antibody SG1202; antibody SG1202
With B1, in experiment [1], the binding result was “no binding”.

B2: bispecific fusion protein 12VF2 (bispecific antibody, human IgG1, kappa)
light: EIVLTQSPGTLSLSPGERATLSCRASQRVSSSYLAWYQQKPGQAPRLLIYDASSRATGIPDRFSGSGSGTDFTLTISRLEPEDFAVYYCQQYGSLPWTFGQGTKVEIKRTVAAPSVFIFPPSDEQLKSGTASVVCLLNNFYPREAKVQWKVDNALQSGNSQESVTEQDSKDSTYSLSSTLTLSKADYEKHKVYACEVTHQGLSSPVTKSFNRGEC
heavy: EVQLVESGGGLVQPGGSLRLSCAASGFTFSRYWMSWVRQAPGKGLEWVANIKQDGSEKYYVDSVKGRFTISRDNAKNSLYLQMNSLRAEDTAVYYCAREGGWFGELAFDYWGQGTLVTVSSASTKGPSVFPLAPSSKSTSGGTAALGCLVKDYFPEPVTVSWNSGALTSGVHTFPAVLQSSGLYSLSSVVTVPSSSLGTQTYICNVNHKPSNTKVDKRVEPKSCDKTHTCPPCPAPEFEGGPSVFLFPPKPKDTLMISRTPEVTCVVVDVSHEDPEVKFNWYVDGVEVHNAKTKPREEQYNSTYRVVSVLTVLHQDWLNGKEYKCKVSNKALPASIEKTISKAKGQPREPQVYTLPPSREEMTKNQVSLTCLVKGFYPSDIAVEWESNGQPENNYKTTPPVLDSDGSFFLYSKLTVDKSRWQQGNVFSCSVMHEALHNHYTQKSLSLSPGKGGGGSGGGGSSDTGRPFVEMYSEIPEIIHMTEGRELVIPCRVTSPNITVTLKKFPLDTLIPDGKRIIWDSRKGFIISNATYKEIGLLTCEATVNGHLYKTNYLTHRQTNTIIDVVLSPSHGIELSVGEKLVLNCTARTELNVGIDFNWEYPSSKHQHKKLVNRDLKTQSGSEMKKFLSTLTIDGVTRSDQGLYTCAASSGLMTKKNSTFVRVHE
Regarding B2, the IC50 in experiment [2] came out at 3.5 nM; in experiment [3], 3.29 nM; in experiment [4], 5.05 nM.

The IC50 is the concentration needed to halve the response being measured.
